From paper doi:10.1101/2022.06.14.495942 (bioRxiv, 2022)

T1: UFO in the purified ASK1-UFO-LFY-DBD complex (Arabidopsis thaliana, UniProt Q39090 1-442)
T1 sequence: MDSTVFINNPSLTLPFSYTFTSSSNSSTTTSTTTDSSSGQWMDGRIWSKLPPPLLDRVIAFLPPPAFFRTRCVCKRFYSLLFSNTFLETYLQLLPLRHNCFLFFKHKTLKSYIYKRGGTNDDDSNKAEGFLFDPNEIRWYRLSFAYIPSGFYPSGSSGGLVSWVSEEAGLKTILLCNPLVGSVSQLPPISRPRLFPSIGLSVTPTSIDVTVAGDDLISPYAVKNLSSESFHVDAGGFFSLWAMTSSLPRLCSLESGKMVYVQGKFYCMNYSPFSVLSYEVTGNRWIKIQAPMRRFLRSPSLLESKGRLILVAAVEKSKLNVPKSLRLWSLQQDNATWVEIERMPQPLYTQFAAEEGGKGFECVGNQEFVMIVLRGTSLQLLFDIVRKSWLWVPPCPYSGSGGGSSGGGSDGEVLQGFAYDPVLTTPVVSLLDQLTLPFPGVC


What was measured:
[1] = molecular target: LFY-DBD in the purified ASK1-UFO-LFY-DBD complex (Arabidopsis thaliana); experiment: SEC-MALS
[2] = molecular target: T1, UFO in the purified ASK1-UFO-LFY-DBD …; experiment: SEC-MALS

Row | Binder | stoichiometry N [1] | stoichiometry N [2]
1 | UFO in the purified ASK1-UFO-LFY-DBD complex (natural protein) MDSTVFINNPSLTLPFSYTFTSSSNSSTTTSTTTDSSSGQWMDGRIWSKLPPPLLDRVIAFLPPPAFFRTRCVCKRFYSLLFSNTFLETYLQLLPLRHNCFLFFKHKTLKSYIYKRGGTNDDDSNKAEGFLFDPNEIRWYRLSFAYIPSGFYPSGSSGGLVSWVSEEAGLKTILLCNPLVGSVSQLPPISRPRLFPSIGLSVTPTSIDVTVAGDDLISPYAVKNLSSESFHVDAGGFFSLWAMTSSLPRLCSLESGKMVYVQGKFYCMNYSPFSVLSYEVTGNRWIKIQAPMRRFLRSPSLLESKGRLILVAAVEKSKLNVPKSLRLWSLQQDNATWVEIERMPQPLYTQFAAEEGGKGFECVGNQEFVMIVLRGTSLQLLFDIVRKSWLWVPPCPYSGSGGGSSGGGSDGEVLQGFAYDPVLTTPVVSLLDQLTLPFPGVC | 1 | 
2 | ASK1 in the purified ASK1-UFO-LFY-DBD complex (natural protein) MSAKKIVLKSSDGESFEVEEAVALESQTIAHMVEDDCVDNGVPLPNVTSKILAKVIEYCKRHVEAAASKAEAVEGAATSDDDLKAWDADFMKIDQATLFELILAANYLNIKNLLDLTCQTVADMIKGKTPEEIRTTFNIKNDFTPEEEEEVRRENQWAFE |  | 1
